# In patent US20190106510A1 (CELLDEX THERAPEUTICS, published 2019):
# What was measured:
# [1] = biological target: T1, full-length, wild-type human KIT expressed on CHO cells (human, UniProt P10721 26-976); test: cell-based or functional assay
# recombinant KIT D4/D5 [2] = biological target: T2, recombinant KIT D4/D5 (human, UniProt P10721 26-519); test: direct binding ELISA, plate-coated recombinant KIT D4/D5; assay #1 (supernatant), mean of 4 replicates
# T2 construct: also called recombinant c-Kit Ig-like domains D4/D5; recombinant polypeptide of the D4/D5 region of human KIT
# T2 sequence (P10721 other isoform, or with tags, fused parts or gaps limits assumed): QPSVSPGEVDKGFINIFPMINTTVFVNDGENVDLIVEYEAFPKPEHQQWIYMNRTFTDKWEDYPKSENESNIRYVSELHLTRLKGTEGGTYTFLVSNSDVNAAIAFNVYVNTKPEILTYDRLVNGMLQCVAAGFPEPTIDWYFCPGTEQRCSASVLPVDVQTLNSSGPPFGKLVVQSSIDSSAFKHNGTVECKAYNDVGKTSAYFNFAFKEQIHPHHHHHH
# Experimental: (§1) The binding affinity of the anti-KIT antibodies to the target antigen KIT Ig-like domains D4/D5 was assessed by direct binding ELISA. […] Bound antibody was detected with anti-human Ig-HRP followed by detection using TMB substrate.
# recombinant KIT D4/D5 [3] = biological target: T2, recombinant KIT D4/D5; test: direct binding ELISA, plate-coated recombinant KIT D4/D5; assay #2 (supernatant), mean of 5 replicates
# Experimental: as §1
# recombinant KIT D4/D5 [4] = biological target: T2, recombinant KIT D4/D5; test: direct binding ELISA, plate-coated recombinant KIT D4/D5; assay #3 (purified), mean of 2 replicates
# Experimental: as §1
# recombinant KIT D4/D5 [5] = biological target: T2, recombinant KIT D4/D5; test: direct binding ELISA, plate-coated recombinant KIT D4/D5; assay #4 (purified), 1 replicate
# Experimental: as §1
# [6] = biological target: T1, full-length, wild-type human KIT …; test: flow cytometry on CHO cells expressing full-length wild-type human KIT (FIG. 6)
# Experimental: Briefly, parental CHO cells and CHO/KIT-WT cells were washed and incubated with 0.01 nM, 0.1 nM, 1 nM or 10 nM of a chimeric (human-mouse) 37M antibody, antibody Hum17, Hum8, Hum4, or Hum10, a negative control isotype IgG antibody, or a commercial anti-KIT antibody as a positive control. The samples were processed for flow cytometry analysis. More specifically, cells were removed from the culture flasks using EDTA, and washed with PBS. Then, the cells were resuspended in media and counted. Each sample containing approximately 200,000 to 250,000 cells was spun, the media was removed, and the cells were resuspended in FC buffer (1% BSA, 0.01% sodium azide in 1×PBS) for the blocking step. The cells were incubated in FC buffer for 1 hour on ice. Then, primary antibody (e.g., a chimeric (human-mouse) 37M antibody, Hum17, Hum8, Hum4, Hum10, positive control anti-KIT antibody, or negative control antibody) was added to the cells in FC buffer as described above. The samples were mixed and incubated on ice for 1 hour, followed by washing the cells with 0.5-1 mL FC buffer. The FC buffer was removed by spinning the cells at 1200 rpm for 3 minutes at 4° C., decanting the liquid. The cell pellets were resuspended in 200 μL FC buffer, and secondary antibody (DyLight 488 AffiniPure Goat Anti-Mouse IgG Jackson Laboratories) was added to the cells at a 1:1000 to 1:2000 dilution. The samples were mixed and incubated on ice for 1 hour, and then washed as described above. The samples were run on a fluorescence activated cell sorter (FACS) machine (Accuri FlowCytometer C6). Samples were analyzed by following channel FLA-1 for DyLight-conjugated samples.
# recombinant KIT D4/D5 [7] = biological target: T2, recombinant KIT D4/D5; test: solid phase ELISA, plate-adsorbed recombinant D4/D5 region of human KIT (FIG. 5)
# Experimental: Recombinant antigen corresponding to the D4/D5 region of the KIT extracellular domain (see FIG. 2) was absorbed onto 96-well microtiter plates. In particular, recombinant antigen (5 μg) were diluted into 10 mL of borate buffer, and 100 μL of the antigen solution were added to each well of a 96 well plate and were incubated at 4° C. overnight.
# ELISA: Following one rinse with TBS-T, blocking buffer (200 μL) was added to each well of the plate with the adsorbed antigen and was incubate at room temperature for one hour. Then, the blocking buffer was removed, and the serially diluted solutions of test antibodies and controls were added to the plate in a volume of 50 μL and incubated at room temperature for one hour. The antibody solutions were removed, and the plate was washed three times with 100 μL of wash buffer on a plate washer. After the last wash, the plate was blotted dry. Secondary antibody solution was diluted 1:8000 and was added to each well in a volume of 100 μL and allowed to incubate for one hour at room temperature. The diluted secondary antibody solution was removed, and the plate was washed three times with 100 μL of wash buffer on a plate washer. Then, freshly mixed TMB substrate solution was added to each well in a volume of 100 μL and was allowed to incubate at room temperature for 30 minutes. Subsequently, 100 μL of 2N H₂SO₄ were added to each well and immediately read on the plate reader. An irrelevant antibody served as the negative control, and an anti-KIT antibody against the D4 and/or D5 domain of the extracellular region of KIT served as the positive control. OD values for each sample were obtained at a wavelength of 450 nm.
# Results were analyzed using Graph Pad Prism and Excel to obtain the concentration of antibodies at 50% binding to antigen.
# T1 sequence (P10721 other isoform, or with tags, fused parts or gaps limits assumed): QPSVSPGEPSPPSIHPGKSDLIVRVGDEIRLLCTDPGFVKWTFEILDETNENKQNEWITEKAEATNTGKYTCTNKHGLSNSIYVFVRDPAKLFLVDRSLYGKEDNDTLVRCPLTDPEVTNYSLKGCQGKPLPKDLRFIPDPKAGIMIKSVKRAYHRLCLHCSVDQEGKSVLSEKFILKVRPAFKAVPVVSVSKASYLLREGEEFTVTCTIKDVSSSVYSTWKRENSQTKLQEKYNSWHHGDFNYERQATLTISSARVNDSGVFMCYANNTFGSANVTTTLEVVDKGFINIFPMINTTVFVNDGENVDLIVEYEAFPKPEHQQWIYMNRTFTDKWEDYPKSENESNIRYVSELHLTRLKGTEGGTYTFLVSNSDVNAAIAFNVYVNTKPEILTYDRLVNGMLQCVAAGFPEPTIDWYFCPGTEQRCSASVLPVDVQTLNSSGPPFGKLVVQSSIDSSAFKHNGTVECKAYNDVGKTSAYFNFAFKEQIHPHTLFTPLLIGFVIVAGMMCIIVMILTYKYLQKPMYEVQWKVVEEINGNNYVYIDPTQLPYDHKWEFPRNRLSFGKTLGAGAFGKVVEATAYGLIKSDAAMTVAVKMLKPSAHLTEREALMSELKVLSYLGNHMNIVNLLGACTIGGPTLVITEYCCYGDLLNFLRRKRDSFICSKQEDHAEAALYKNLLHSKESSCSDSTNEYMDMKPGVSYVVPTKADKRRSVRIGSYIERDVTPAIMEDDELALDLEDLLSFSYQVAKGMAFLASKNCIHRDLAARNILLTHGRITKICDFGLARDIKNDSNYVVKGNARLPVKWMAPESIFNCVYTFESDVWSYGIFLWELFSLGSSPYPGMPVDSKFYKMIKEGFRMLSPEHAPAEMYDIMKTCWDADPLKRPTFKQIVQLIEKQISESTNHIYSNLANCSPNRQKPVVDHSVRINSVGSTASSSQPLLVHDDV
binder,measurement,setting,value
"chimeric antibody 37C (antibody, V domains shown, also called chimera of antibody 37M; chimera) VH: QVQLKQSGAELVRPGASVKLSCKASGYTFTDYYINWVKQRPGQGLEWIARIYPGSGNTYYNEKFKGKATLTAEKSSSTAYMQLSSLTSEDSAVYFCARGVYYFDYWGQGTTLTVSA VL: DIVMTQSQKFMSTSVGDRVSVTCKASQNVRTNVAWYQQKPGQSPKALIYSASYRYSGVPDRFTGSGSGTDFTLTISNVQSEDLADYFCQQYNSYPRTFGGGTKLEIK","50% inhibition concentration (IC50), SCF-induced KIT tyrosine phosphorylation, cell-based phospho-KIT ELISA",[1],~344 pM
same,EC50,recombinant KIT D4/D5 [2],381 pM
same,EC50,recombinant KIT D4/D5 [3],412 pM
same,EC50,recombinant KIT D4/D5 [4],462 pM
same,EC50,recombinant KIT D4/D5 [5],568 pM
same,EC50,[6],~47 pM
same,EC50,recombinant KIT D4/D5 [7],~12 pM
